Among the data in patent US20230151340A1, “PLASTIC DEGRADING FUSION PROTEINS AND METHODS OF USING THE SAME” (Alliance for Sustainable Energy, LLC, priority 2020, published 2023) are Km, Vmax and kcat/Km values, retold here.

Substrate in data set [1]: O=C(O)c1ccc(C(=O)OCCO)cc1
The data set can be described thus: purified protein, by the assay type. The following applies: other: MHET 10-250 μM, 5 nM enzyme, pH 7.5, 30° C., substrate inhibition model.

Substrate in data set [2]: O=C(O)c1ccc(C(=O)OCCO)cc1
The data set can be described thus: Michaelis-Menten kinetics of MHETase and variants (substrate inhibition model). It counts as biochemical, Comamonas thiooxydans. The conditions noted are these: other: MHET 10-250 μM, 5 nM enzyme, pH 7.5, 30° C.

B1: Ideonella sakaiensis 201-F6 MHETase (Is MHETase), wild type, Genbank GAP38911.1, C-terminal His tag (DNA SEQ ID NO: 1) (Pseudideonella sakaiensis) (protein)
chain: CAGGGSTPLPLPQQQPPQQEPPPPPVPLASRAACEALKDGNGDMVWPNAATVVEVAAWRDAAPATASAAALPEHCEVSGAIAKRTGIDGYPYEIKFRLRMPAEWNGRFFMEGGSGTNGSLSAATGSIGGGQIASALSRNFATIATDGGHDNAVNDNPDALGTVAFGLDPQARLDMGYNSYDQVTQAGKAAVARFYGRAADKSYFIGCSEGGREGMMLSQRFPSHYDGIVAGAPGYQLPKAGISGAWTTQSLAPAAVGLDAQGVPLINKSFSDADLHLLSQAILGTCDALDGLADGIVDNYRACQAAFDPATAANPANGQALQCVGAKTADCLSPVQVTAIKRAMAGPVNSAGTPLYNRWAWDAGMSGLSGTTYNQGWRSWWLGSFNSSANNAQRVSGFSARSWLVDFATPPEPMPMTQVAARMMKFDFDIDPLKIWATSGQFTQSSMDWHGATSTDLAAFRDRGGKMILYHGMSDAAFSALDTADYYERLGAAMPGAAGFARLFLVPGMNHCSGGPGTDRFDMLTPLVAWVERGEAPDQISAWSGTPGYFGVAARTRPLCPYPQIARYKGSGDINTEANFACAAPP
For the protein B1, the Km in data set [1] worked out at 23.17 ± 1.65 µM.

B2: Comamonas thiooxydans MHETase (putative MHETase, Genbank WP_080747404.1), C-terminal His tag (Comamonas thiooxydans) (protein)
chain: HMFVRNADRAKNCMRAPLRVFPLKDTFSAQCANVSVWITSSVPPLRERHMDRRVTRRDLMQTRILLMLIAATGVAACGGDGGSTPAAQNPPLPLASRAACEAFQGNSNSIAWPHRATVVEVATWHEAEPANATAAATPEHCEISGAIARRTGIDGYPYEIKFRLRMPSEWNGRFFMEGGGGTNGSLSAATGSLGGGQTASALSRNFATIATDGGHDNAVNNNPDALGTVAFGMDPQARIDMGYNSYDQVTQAGKAAVAQFYGRAPDKSYFIGCSEGGREGMMLSQRFPSHYDGIVAGAPGYQLPKAGISGAWTTQSLAPAAVGVDAQNVPLINKAFSDVDLHLLSRGILGTCDALDGLSDGIVNDFRACQAAFDPATALNPDTSQPLQCTGAKTPDCLSAAQVTGIKRAMGGPVDSAGAALYNRWAWDPGMSGLNGTSYNQGWRSWWLGSYASSTNNAQRVNGFSARSWLVDFATPPEPMPVTQVAARMMNFNFDTDPPKIRATSGPFTPSSMEWHGATSTNLAAFRDRGGKLMLYHGMSDAAFSALDTADYYERLGAAMPGAAGFARLFLVPGMNHCSGGPGTDRFDMLTPLVAWVERDKAPDQVSAWAGTPGYFGATARTRPLCPYPQIARYKGSGDINAEASFVCVAPLE
In the case of B2, in data set [2], the Km is 174.70 ± 4.75 µM, the maximum rate (Vmax) was 12.2 µM/min and the kcat/Km stood at 230000 M⁻¹ s⁻¹.

By Km is commonly meant the concentration of substrate that gives half-maximal velocity. Usually Vmax stands for the top rate of the reaction or transport when substrate is in excess. The kcat/Km is the second-order rate constant that governs catalysis at low substrate concentration.
